Laboratory results taken from patent publication US20240343814A1.
Numbering of substitutions follows the chain as printed.

B1: VRDN-02501 (antibody, V domains shown)
VH: EVQLVQSGGGLVKPGGSLRLSCAASHFTFSSFAMHWVRQAPGKGLEWISVIDTRGATYYADSVKGRFTISRDNAKNSLYLQMNSLRAEDTAVYYCARLGNFYYGMDVWGQGTTVTVSS
VL: EIVLTQSPGTLSVSPGERATLSCRASQSIGSSLHWYQQKPGQAPRLLIKYASQSLSGIPDRFSGSGSGTDFTLTISRLEPEDFAVYYCHQSSRLPHTFGQGTKVEIK
B2: VRDN-02538 (antibody, V domains shown)
VH: B1 VH with H26G
VL: B1 VL with K49H
B3: VRDN-02553 (antibody, V domains shown)
VH: B1 VH with H26G, A33H
VL: B1 VL with Y50H
B4: VRDN-02554 (antibody, V domains shown)
VH: B1 VH with H26G, D52H
VL: B1 VL with Y50H
B5: VRDN-02555 (antibody, V domains shown)
VH: B1 VH with H26G, A96H
VL: B1 VL with Y50H
B6: VRDN-02558 (antibody, V domains shown)
VH: B1 VH with H26G, A33H, D52H
VL: B1 VL
B7: VRDN-02561 (antibody, V domains shown)
VH: B1 VH with H26G, A33H, M105H
VL: B1 VL
B8: VRDN-02562 (antibody, V domains shown)
VH: B1 VH with H26G, D52H, A96H
VL: B1 VL
B9: VRDN-02563 (antibody, V domains shown)
VH: B1 VH with H26G, D52H, G104H
VL: B1 VL
B10: VRDN-02564 (antibody, V domains shown)
VH: B1 VH with H26G, D52H, M105H
VL: B1 VL
B11: VRDN-02568 (antibody, V domains shown)
VH: B1 VH with H26G, A33H, D52H, M105H
VL: B1 VL
B12: VRDN-02569 (antibody, V domains shown)
VH: B1 VH with H26G, A33H, D52H
VL: B1 VL with Y50H
B13: VRDN-02570 (antibody, V domains shown)
VH: B1 VH with H26G, A33H, M105H
VL: B1 VL with Y50H
B14: VRDN-02571 (antibody, V domains shown)
VH: B1 VH with H26G, D52H, M105H
VL: B1 VL with Y50H

Biological target: Recombinant human his-tagged IGF 1R extracellular domain protein (human) (UniProt P08069)
Assay: SPR, captured IgG, IGF-1R ECD-his analyte, dissociation pH 6

Compared with B1, B2 is 1.8-fold higher in Kd: 0.0259 nM for the first, 0.0463 nM for the second. The first binds more tightly here.

B3 and B4 are within 1.5-fold of each other in Kd: 1.56 nM for the first, 1.53 nM for the second.

Compared with B5, B6 is 3.7-fold higher in Kd: 0.851 nM for the first, 3.15 nM for the second. The first binds more tightly here.

B7 and B8 are within 1.5-fold of each other in Kd: 1.64 nM for the first, 1.34 nM for the second.

First: B9
Second: B10
The Kd of the first is 2.3-fold higher: 3.46 nM for the first, 1.48 nM for the second. The second binds more tightly here.

Going from B11 to B12, the Kd falls from 29.9 nM to 1.51 nM (20-fold).

B13 and B14 are within 1.5-fold of each other in Kd: 1.76 nM for the first, 2.15 nM for the second.

B1 and B2 are the same in koff: 1e-06 s⁻¹ for the first, 1e-06 s⁻¹ for the second.

Going from B3 to B4, the koff falls from 0.000534 s⁻¹ to 0.000152 s⁻¹ (3.5-fold).

First: B5
Second: B6
The koff of the first is 2.5-fold higher: 0.000418 s⁻¹ for the first, 0.00017 s⁻¹ for the second.

Going from B7 to B8, the koff falls from 0.000539 s⁻¹ to 0.00018 s⁻¹ (3-fold).

B9 and B10 are within 1.5-fold of each other in koff: 0.000353 s⁻¹ for the first, 0.000507 s⁻¹ for the second.

Going from B11 to B12, the koff rises from 0.000129 s⁻¹ to 0.000516 s⁻¹ (4-fold).

B13 and B14 are within 1.5-fold of each other in koff: 0.000376 s⁻¹ for the first, 0.000344 s⁻¹ for the second.

First: B1
Second: B2
The kon of the first is 1.8-fold higher: 38600 M⁻¹ s⁻¹ for the first, 21600 M⁻¹ s⁻¹ for the second.

First: B3
Second: B4
The kon of the first is 3.4-fold higher: 341000 M⁻¹ s⁻¹ for the first, 99500 M⁻¹ s⁻¹ for the second.

First: B5
Second: B6
The kon of the first is 9.1-fold higher: 491000 M⁻¹ s⁻¹ for the first, 53900 M⁻¹ s⁻¹ for the second.

Compared with B7, B8 is 2.4-fold lower in kon: 329000 M⁻¹ s⁻¹ for the first, 135000 M⁻¹ s⁻¹ for the second.

Going from B9 to B10, the kon rises from 102000 M⁻¹ s⁻¹ to 344000 M⁻¹ s⁻¹ (3.4-fold).

First: B11
Second: B12
The kon of the first is 79-fold lower: 4320 M⁻¹ s⁻¹ for the first, 342000 M⁻¹ s⁻¹ for the second.

B13 and B14 are within 1.5-fold of each other in kon: 214000 M⁻¹ s⁻¹ for the first, 160000 M⁻¹ s⁻¹ for the second.

Biological target: Recombinant human his-tagged IGF 1R extracellular domain protein (human) (UniProt P08069)
Assay: SPR, captured IgG, IGF-1R ECD-his analyte, dissociation pH 7.4

B1 showed a Kd of 0.911 nM.

B1 gave a koff of 0.00015 s⁻¹.

In the case of B1, the kon is reported as 165000 M⁻¹ s⁻¹.
